Data on 61 sequences can be found in the supplement of paper PMC7877785.

± gives the uncertainty stated by the source.

The series can be described thus: self-splicing fitness, log relative to wild type (ln ratio); higher = more splicing; Tetrahymena group I intron in knt gene, E. coli kanamycin selection, DiMSum; sequences stand for … in CUCUCU…GGAGGGAAAAGUUAUCAGGCAUGCACCUGGUAGCUAGUCUUUAAACCAAUAGAUUGCAUCGGUUUAAAAGGCAAGACCGUCAAAUUGCGGGAAAGGGGUCAACAGCCGUUCAGUACCAAGUCUCAGGGGAAACUUUGAGAUGGCCUUGCAAAGGGUAUGGUAAUAAGCUGACGGACAUGGUCCUAACCACGCAGCCAAGUCCUAAGUCAACAGAUCUUCUGUUGAUAUGGAUGCAGUUCACAGACUAAAUGUCGGUCGGGGAAGAUGUAUUCUUCUCAUAAGAUAUAGUCGGACCUCUCCUUAAUGGGAGCUAGCGGAUGAAGUGAUGCAACACUGGAGCCGCUGGGAACUAAUUUGUAUGCGAAAGUAUAUUGAUUAGUUUUGGAGUACUCGUGGUCG
The method in brief: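 Six replicate transformations of E. coli BL21(DE3) with a pET-22b(+) library were grown overnight at 37°C or 30°C. The library randomised all eight P1ex-region intron nucleotides, the intron lying in the knt kanamycin-resistance gene, and plates were LB agar with or without 25 μg/mL kanamycin plus 100 μg/mL carbenicillin, 50 μM IPTG and 0.2% rhamnose. Pooled colonies were amplicon-sequenced on an Illumina HiSeq 2500, and fitness is the DiMSum error-weighted combination of wild-type-normalised replicate fold changes, kanamycin versus none.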

In the case of AAAGAGCAAUAUUACGCUGC, the “self-splicing fitness (ln)” value is -3.15 ± 0.14 (30 °C) and -2.84 ± 0.21 (37 °C).

As for AUUCAGCAAUAUUACGGACG, the “self-splicing fitness (ln)” value is, setting by setting: (30 °C) -0.626 ± 0.08; (37 °C) -0.168 ± 0.098.

On to GAUAAGCAAUAUUACGACUC, for which the “self-splicing fitness (ln)” value (30 °C) was found to be 0.0338 ± 0.1 and the “self-splicing fitness (ln)” value (37 °C) stood at 0.785 ± 0.13.

As to GAUUAGCAAUAUUACGAGGC, the “self-splicing fitness (ln)” value was -4.11 ± 0.46 (30 °C) and -1.02 ± 0.28 (37 °C).

As for CGGGAGCAAUAUUACGAACU, the “self-splicing fitness (ln)” value (37 °C) was -1.25 ± 0.45.

Regarding UGAGAGCAAUAUUACGAGCC, for the setting “30 °C”, the “self-splicing fitness (ln)” value is -1.9 ± 0.33.

For UAGCAGCAAUAUUACGUUGU, the “self-splicing fitness (ln)” value by setting is: (30 °C) -3.72 ± 0.21; (37 °C) -3.08 ± 0.26.

In the case of ACGUAGCAAUAUUACGUGAC, the “self-splicing fitness (ln)” value by setting is: (30 °C) -2.84 ± 0.14; (37 °C) -2.94 ± 0.22.

As to GAGAAGCAAUAUUACGAAUC, the “self-splicing fitness (ln)” value is -3.91 ± 0.31 (30 °C) and -1.12 ± 0.19 (37 °C).

Consider CCAAAGCAAUAUUACGAUGC, for which the “self-splicing fitness (ln)” value (30 °C) is -3.78 ± 0.19 and the “self-splicing fitness (ln)” value (37 °C) is -3.64 ± 0.24.

In the case of AACCAGCAAUAUUACGGUUG, the “self-splicing fitness (ln)” value by setting is: (30 °C) -2.21 ± 0.05; (37 °C) -0.839 ± 0.06.

Turning to GCACAGCAAUAUUACGCCCG, the “self-splicing fitness (ln)” value (30 °C) is -1.84 ± 0.17 and the “self-splicing fitness (ln)” value (37 °C) was -0.0618 ± 0.19.

For the sequence UAAGAGCAAUAUUACGGUUA, the “self-splicing fitness (ln)” value runs as follows: (30 °C) -1.12 ± 0.12; (37 °C) -0.602 ± 0.1.

Take UUCUAGCAAUAUUACGCCGU: the “self-splicing fitness (ln)” value by setting is: (30 °C) -2.06 ± 0.46; (37 °C) -0.835 ± 0.34.

In the case of UCCUAGCAAUAUUACGCUGA, the “self-splicing fitness (ln)” value by setting is: (30 °C) -1.02 ± 0.11; (37 °C) -0.876 ± 0.12.

Regarding CAAAAGCAAUAUUACGAGCU, the “self-splicing fitness (ln)” value was -3.99 ± 0.21 (30 °C) and -1.96 ± 0.13 (37 °C).

GUCUAGCAAUAUUACGAUAC: the “self-splicing fitness (ln)” value (30 °C) came out at 0.218 ± 0.22 and the “self-splicing fitness (ln)” value (37 °C) was -0.815 ± 0.22.

Turning to CUAGAGCAAUAUUACGAUUU, the “self-splicing fitness (ln)” value (30 °C) is -3.17 ± 0.2 and the “self-splicing fitness (ln)” value (37 °C) is -1.48 ± 0.25.

GGCCAGCAAUAUUACGGACG: the “self-splicing fitness (ln)” value is, setting by setting: (30 °C) -0.421 ± 0.072; (37 °C) 0.71 ± 0.1.

In the case of GGUAAGCAAUAUUACGUCUU, the “self-splicing fitness (ln)” value (30 °C) was -0.148 ± 0.1 and the “self-splicing fitness (ln)” value (37 °C) is -0.802 ± 0.12.

Consider UUCUAGCAAUAUUACGUCCU, for which the “self-splicing fitness (ln)” value (30 °C) was -1.87 ± 0.38 and the “self-splicing fitness (ln)” value (37 °C) is -2.91 ± 0.36.

As to CAUUAGCAAUAUUACGGCUG, the “self-splicing fitness (ln)” value is, setting by setting: (30 °C) 0.0732 ± 0.078; (37 °C) 0.0962 ± 0.088.

As for AACAAGCAAUAUUACGGGCU, the “self-splicing fitness (ln)” value (30 °C) is -1.82 ± 0.073 and the “self-splicing fitness (ln)” value (37 °C) is -1.15 ± 0.099.

Consider AGCAAGCAAUAUUACGUAGU, for which the “self-splicing fitness (ln)” value runs as follows: (30 °C) -3.18 ± 0.18; (37 °C) -2.14 ± 0.19.

Regarding GUUGAGCAAUAUUACGCACA, the “self-splicing fitness (ln)” value (30 °C) was -1.83 ± 0.14 and the “self-splicing fitness (ln)” value (37 °C) was -0.945 ± 0.15.

Regarding AGCGAGCAAUAUUACGUGCU, the “self-splicing fitness (ln)” value reads like this: (30 °C) -4.05 ± 0.29; (37 °C) -1.41 ± 0.23.

Regarding CACGAGCAAUAUUACGUAAA, under “37 °C”, the “self-splicing fitness (ln)” value was -1.83 ± 0.21.

With CAGUAGCAAUAUUACGAAUC, the “self-splicing fitness (ln)” value (30 °C) is -3.49 ± 0.33.

CUCGAGCAAUAUUACGUAAG: the “self-splicing fitness (ln)” value is, setting by setting: (30 °C) -2.81 ± 0.17; (37 °C) -1.26 ± 0.18.

In the case of UAUUAGCAAUAUUACGAGAG, the “self-splicing fitness (ln)” value runs as follows: (30 °C) -3.48 ± 0.26; (37 °C) -3.11 ± 0.29.

On to ACAAAGCAAUAUUACGGCCA, for which the “self-splicing fitness (ln)” value runs as follows: (30 °C) -1.13 ± 0.14; (37 °C) -0.00489 ± 0.11.

For the sequence GACAAGCAAUAUUACGGGAC, the “self-splicing fitness (ln)” value reads like this: (30 °C) -2.13 ± 0.25; (37 °C) -1.02 ± 0.4.

For UGUGAGCAAUAUUACGAAUA, the “self-splicing fitness (ln)” value is -3.54 ± 0.43 (30 °C) and -2.26 ± 0.36 (37 °C).

On to UCAAAGCAAUAUUACGCGGU, for which the “self-splicing fitness (ln)” value runs as follows: (30 °C) -2.75 ± 0.14; (37 °C) -2.97 ± 0.16.

With AUCUAGCAAUAUUACGGACU, the “self-splicing fitness (ln)” value reads like this: (30 °C) 0.0775 ± 0.11; (37 °C) 0.443 ± 0.12.

As for UCAAAGCAAUAUUACGCUUA, the “self-splicing fitness (ln)” value (30 °C) was -2.87 ± 0.14 and the “self-splicing fitness (ln)” value (37 °C) is -2.53 ± 0.17.

Turning to AACCAGCAAUAUUACGACGG, the “self-splicing fitness (ln)” value is -2.1 ± 0.089 (30 °C) and -0.974 ± 0.11 (37 °C).

In the case of CACGAGCAAUAUUACGUCUA, the “self-splicing fitness (ln)” value is -1.3 ± 0.32 (30 °C) and -1.55 ± 0.27 (37 °C).

As to GGCUAGCAAUAUUACGGACC, the “self-splicing fitness (ln)” value was -1.67 ± 0.14 (30 °C) and -0.619 ± 0.2 (37 °C).

Turning to GAGUAGCAAUAUUACGACCU, the “self-splicing fitness (ln)” value is 0.288 ± 0.14 (30 °C) and -1.02 ± 0.16 (37 °C).

For UGGAAGCAAUAUUACGGACG, the “self-splicing fitness (ln)” value is -1.13 ± 0.16 (30 °C) and 0.0618 ± 0.28 (37 °C).

For the sequence GCAAAGCAAUAUUACGGUUC, the “self-splicing fitness (ln)” value by setting is: (30 °C) -2.17 ± 0.089; (37 °C) -0.948 ± 0.11.

As for CGUGAGCAAUAUUACGAUGC, the “self-splicing fitness (ln)” value (30 °C) was -0.111 ± 0.43 and the “self-splicing fitness (ln)” value (37 °C) is -2 ± 0.48.

Turning to CUUGAGCAAUAUUACGGAUG, the “self-splicing fitness (ln)” value was -1.75 ± 0.11 (30 °C) and -0.176 ± 0.11 (37 °C).

As to GUGAAGCAAUAUUACGUGUG, the “self-splicing fitness (ln)” value by setting is: (30 °C) -0.934 ± 0.089; (37 °C) -0.737 ± 0.11.

CAACAGCAAUAUUACGAAUA: the “self-splicing fitness (ln)” value was -3.74 ± 0.28 (30 °C) and -1.83 ± 0.2 (37 °C).

For CGAAAGCAAUAUUACGGGGC, the “self-splicing fitness (ln)” value was -4.34 ± 0.32 (30 °C) and -1.98 ± 0.19 (37 °C).

GCUAAGCAAUAUUACGUCAC: the “self-splicing fitness (ln)” value is, setting by setting: (30 °C) -3.38 ± 0.44; (37 °C) -2.35 ± 0.24.

Regarding CAUGAGCAAUAUUACGGUCU, the “self-splicing fitness (ln)” value is, setting by setting: (30 °C) -3.11 ± 0.28; (37 °C) -1.2 ± 0.18.

ACGGAGCAAUAUUACGAGGC: the “self-splicing fitness (ln)” value reads like this: (30 °C) -2.43 ± 0.19; (37 °C) -2.07 ± 0.31.

As to AUGUAGCAAUAUUACGAUUU, the “self-splicing fitness (ln)” value (30 °C) was -0.199 ± 0.093 and the “self-splicing fitness (ln)” value (37 °C) was 0.373 ± 0.11.

In the case of GCAUAGCAAUAUUACGUGGG, the “self-splicing fitness (ln)” value runs as follows: (30 °C) -3.68 ± 0.13; (37 °C) -2.82 ± 0.11.

As for AAGCAGCAAUAUUACGGGGA, the “self-splicing fitness (ln)” value by setting is: (30 °C) -3.53 ± 0.33; (37 °C) -1.11 ± 0.13.

On to GGGGAGCAAUAUUACGGCCA, for which the “self-splicing fitness (ln)” value runs as follows: (30 °C) -0.941 ± 0.2; (37 °C) 0.555 ± 0.21.

On to GUGAAGCAAUAUUACGCCUG, for which the “self-splicing fitness (ln)” value is, setting by setting: (30 °C) -0.422 ± 0.091; (37 °C) 0.015 ± 0.13.

With UCACAGCAAUAUUACGUAAA, the “self-splicing fitness (ln)” value (30 °C) is -2.14 ± 0.069 and the “self-splicing fitness (ln)” value (37 °C) is -1.18 ± 0.084.

In the case of AGGGAGCAAUAUUACGGUUU, the “self-splicing fitness (ln)” value (30 °C) was -3.83 ± 0.24 and the “self-splicing fitness (ln)” value (37 °C) is -2.39 ± 0.26.

CAUCAGCAAUAUUACGCAAA: the “self-splicing fitness (ln)” value is, setting by setting: (30 °C) -2.39 ± 0.15; (37 °C) -2.48 ± 0.21.

Regarding GUUCAGCAAUAUUACGGUUA, the “self-splicing fitness (ln)” value is, setting by setting: (30 °C) -0.817 ± 0.098; (37 °C) -0.352 ± 0.082.

In the case of GAAGAGCAAUAUUACGUACG, the “self-splicing fitness (ln)” value (30 °C) was -3.52 ± 0.25 and the “self-splicing fitness (ln)” value (37 °C) is -2.15 ± 0.22.

Turning to CCUUAGCAAUAUUACGCUCG, the “self-splicing fitness (ln)” value (37 °C) is -1.73 ± 0.27.
